# Data: the nanobody polyreactivity screen of Harvey et al. (2022)
# Experiment: yeast display, Sf9 membrane polyspecificity reagent, FACS + sequencing; frameworks hold sequencing errors
# Outline: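 Polyreactivity labels are assigned by the sorting gate from which each nanobody was recovered. The gates were low and high (top ~1%), set on anti-HA fluorescence for expression and streptavidin fluorescence for reagent binding. Before sorting, galactose-induced (36–48 hours) yeast display cells were stained for 1 hour at 4 °C with 10% biotinylated, detergent-solubilized Sf9 membrane reagent.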
row,Sequence,polyreactivity (PSR sort gate)
1,QVQLVESGGGLVQAGGSLRLSCAASGRTFRINAMGWYRQAPGKERELVAAITSIAGNTYYADSVKGRFTISRDNAKNTVYLQMNSLKPEDTAVYYCAVDSVPWGFRGAYGLTRYYYWGQGTQVTVSS,low polyreactivity
2,QVQLVESGGGLVQAGGSLRLSCAASGRTFRINAMGWYRQAPGKERELVAAITYRGANTYYADSVKGRFTISRDNAKNTVYLQMNSLKPEDTAVYYCAAEYAYHHVGFGYWGQGTQVTVSS,low polyreactivity
3,QVQLVESGGGLVQAGGSLRLSCAASGRTFRIYAMGWYRPATGKEREMVATISGRGGNTYYADSVKGRFTISRDNAKNTVYLQMNSLKPDDTAVYYCNTVYLPNFQWFDYWGQGTQVTVSS,high polyreactivity
4,QVQLVESGGGLVQAGGSLRLSCAASGRTFRIYAMGWYRQAPGKEREFVAAITWSGGRTYYADSVKGRFTISRDNAKNTVYLQMNSLKPEDTAVYYCAADPTYLRTLRFGSYDYWGQGTQVTVSS,high polyreactivity
5,QVQLVESGGGLVQAGGSLRLSCAASGRTFRKYAMGWYRQAPGKERELVAALSWYGGSTYYANSVKGRFTISRDNAKNTVYLQMNSLKPEDTAVYYCAAVPVHTGSLYWGFTTCYDYWGQGTQVTVSS,low polyreactivity
6,QVQLVESGGGLVQAGGSLRLSCAASGRTFRKYAMGWYRQATGKERELVAAISWSGGSTYYANSVKGRFTISGDNAKNTVYLQINSLNPEDTAVYFCAVDCHPEEYDYWGQGTQVTVSS,low polyreactivity
7,QVQLVESGGGLVQAGGSLRLSCAASGRTFRLNAMGWYRQAPGKERELVAAINTGGGTYYADSVKGRFTISRDNAKNSVYLQMNSLKPEDTAVYYCNACTRYGSFSYVKYDWGQGTQVTVSS,high polyreactivity
8,QVQLVESGGGLVQAGGSLRLSCAASGRTFRLNAMGWYRQAPGKERELVAAITASGGRTYYADSVKGRFTISRDNAKNTVYLQMNSLKPEDTAVYYCNTLSRTDASRFDYWGQGTQVTVSS,high polyreactivity
9,QVQLVESGGGLVQAGGSLRLSCAASGRTFRLNAMGWYRQAPGKERELVAAITLGGGRTYYADSVKGRFTISRDNAKNTVYLQMNSLKPEDTAVYYCNKVKRSYYYVDTDYWGQGTQVTVSS,high polyreactivity
10,QVQLVESGGGLVQAGGSLRLSCAASGRTFRLNGMGWYRQAPGKDRELVAAITWSGGRTYYADSVKGRFTISRDNAKNTVYLQKNSLKPEDTAVYYCAAGKSSYGIPKYYYWGQGTQVTVSS,high polyreactivity
11,QVQLVESGGGLVQAGGSLRLSCAASGRTFRLYAMGWYRQAPGKERELVAAISRRGGSTYYADSVKGRFTISRDNAKNTVYLQMNSLKPEDTAVYYCAKGLGSGQEIYGYDYWGQGTQVTVSS,high polyreactivity
12,QVQLVESGGGLVQAGGSLRLSCAASGRTFRPNVMGWYRQAPGKERELVAAISNGGRTYYADSVKGRFTISRDNAKNTVYLQMNSLKPEDTAVYYCNKVRSPWYDSWGQGTQVTVSS,high polyreactivity
13,QVQLVESGGGLVQAGGSLRLSCAASGRTFRPYAMGLYRQEPGKERELVAAITSGGSTYYADSVKGRLTFSRDNAKYTVYLQMNSLKTEDTAVYYCNAKYYYQPPYDYWVQGTQVTVSS,low polyreactivity
14,QVQLVESGGGLVQAGGSLRLSCAASGRTFRPYAMGWYRQAPGKERELVAAITTTGRTYYADSVKGRFTISRDNAKNTVYLQMNSLKPEDTAVYDCNAVAYPSPHYWRYYYWGQGTQVTVSS,high polyreactivity
15,QVQLVESGGGLVQAGGSLRLSCAASGRTFRQYALGWYRQAPGKEWELVATISGGGGNTYYADSVKGRFTISRDNAKKTVYLQMNSLKPEDTAFYYCAARRRDRPVRGYDYWGQGTQVTVSS,high polyreactivity
16,QVQLVESGGGLVQAGGSLRLSCAASGRTFRQYAMGWSRQAPGKERELVAGITASGGSTSYADSVKGRFTISRDNAKNTVYLQMNSLKPEDTAVYYCAKLSYLYRYDYWGQGTQVTVSS,high polyreactivity
17,QVQLVESGGGLVQAGGSLRLSCAASGRTFRQYAMGWYRQAPGQETELVAAITWDGGSTYYADSVKGRFTISRDNAKNPVYLQMNSLKPEDTAVYYCAKLLGGTYYEYDYWGQGTQVTVSS,low polyreactivity
18,QVQLVESGGGLVQAGGSLRLSCAASGRTFRRNAMGWYRQAPGKERELVAAINSGGSTYYADSVKGRFTISRDNAKNTDYLQMNSLKPEDTAVYYCAASGSKYVQSYSRYDYWGQGTQVTVSS,high polyreactivity
19,QVQLVESGGGLVQAGGSLRLSCAASGRTFRRNAMGWYRQAPGKERELVAAISWRGVSTYYADSVKGRFTISRDNAKNTVYLQMNSLKPEDNALYYCAVDFPYTRRDYWGQGPQVTVSS,high polyreactivity
20,QVQLVESGGGLVQAGGSLRLSCAASGRTFRRNAMGWYRQAPGKEWELVAAISKSGGRTYYADSVKGRFTISRDNAKNTVYLQMNSLKPEDTAVYYCAARGYGYIPDNGDYDYWGQGTQVTVSS,high polyreactivity
21,QVQLVESGGGLVQAGGSLRLSCAASGRTFRRNTMGWYRQAPGKERELVAAISNRGTSTYYADSVKGRFTFSRDNAKNTVYLQMNSLKPEDTAVYYCAAREKYISYSYYYWGQGTQVTVSS,high polyreactivity
22,QVQLVESGGGLVQAGGSLRLSCAASGRTFRRNTMGWYRQATGKERAFVAAITFSGVRTYYADSVKGRFTISRDNAKNTVYLQMNSLKPEDTAVYYCANSRQYIGGFDYWGQGTQVTVSS,high polyreactivity

row,Sequence,polyreactivity (PSR sort gate)
1,QVQLVESGGGLVQAGGSLRLSCAASGRTFRRYAMGWYRQAPGKEREFVAAIRYSGGITYYADSVKGRFTISRDNAKNTVYLQMNSLKPEDTAVFYCAAYGWGNRWYSRFDYWGQGTQVTVSS,high polyreactivity
2,QVQLVESGGGLVQAGGSLRLSCAASGRTFRRYAMGWYRQAPGKERELVAAISKSGGRTYYADSVKGRFTISRDNAKNTVYLQMNSLKPEDTAVYYCAADHIQTAGGDYWGQGTQVTVSS,high polyreactivity
3,QVQLVESGGGLVQAGGSLRLSCAASGRTFRRYAMGWYRQAPGKEREWVAAISRTGSTNNYADSVKGRFTISRDNAKKTVYLQLNSLKPEDTAVYDCNGQLILGYGYDYWGQGTQVTVSS,high polyreactivity
4,QVQLVESGGGLVQAGGSLRLSCAASGRTFRRYTMGWYRQAPGKEREFVAGITSSAGNTHYADSVKGRFTISRYNAKNTVYLQMNSLKPEDTAVYYCNAVYYHGSSQYYGGTYGRYYWGQGTQVTVSS,high polyreactivity
5,QVQLVESGGGLVQAGGSLRLSCAASGRTFRRYTMGWYRQAPGKERELVAAITSGGRTNYADSVKGRFTISRDNAKNTVYLQMNSLKPEDTAVYYCNAQNEIWRVTFSPFDRWGYDYWGQGTQVTVSS,low polyreactivity
6,QVQLVESGGGLVQAGGSLRLSCAASGRTFRRYTMGWYRQAPGKERELVATISSGGSTYADSVKGRFTISRDNAKNTVYLQMNSLKPEDTAVYYCAATAIYPSAWRMDYWGQGTQVTVSS,high polyreactivity
7,QVQLVESGGGLVQAGGSLRLSCAASGRTFRSDNALGWYRQPPGKERELVAAISQGGGTYYADSVKGRFTISRDNAKKTVYLQMNSLKPEDTAVYYCARDAYYADPSLWYYTYDYWGQGTQVTVSS,low polyreactivity
8,QVQLVESGGGLVQAGGSLRLSCAASGRTFRSNAMGWYRQAPGKERELVAAIRNSDGSTNYADSVKGRFTISRDNAKNTVYLQMNSLKPEDTAVYYCAASSTVGRITRILYYYWGQGTQVTVSS,high polyreactivity
9,QVQLVESGGGLVQAGGSLRLSCAASGRTFRSNGMGWYRQAPGKERQLVATISEGGGSTYYADSVKGRFTISRDNAKNTVYLQMNSLKPEDTAVYYCAATVYPSVYGENHYGYWGQGTQVTVSS,high polyreactivity
10,QVQLVESGGGLVQAGGSLRLSCAASGRTFRSNVMGWYRPAPGNERELVASITWSGGTTYYADSVKGRFTISRDNAKNTVYLQMNSLKPEDTAVYYCNAADERSQGWVGYDNWGQCTQVTVSS,low polyreactivity
11,QVQLVESGGGLVQAGGSLRLSCAASGRTFRSYAMGWYRQAPGKERELVAAIRRGGSTNYADSVKGRFTISRDNAKNTVYLQMNSLKPEDTAVYYCNARQTVRGPTDGRIAVWFDYWGQGTQVTVSS,high polyreactivity
12,QVQLVESGGGLVQAGGSLRLSCAASGRTFRSYAMGWYRQAPGKERELVAAISRRGGTTYYADSVKGRFTISRDNAKNTVYLQMNSLKPEDTAVYYCAATSYTYVLSPYRGDYWGQGTQVTVSS,high polyreactivity
13,QVQLVESGGGLVQAGGSLRLSCAASGRTFRSYAMGWYRQAPGKERELVASITSSGRTNYADSVKGRFTISRDNAKNTVYLQMNSLKPEDTAVYYCAAVRYYDYLSSWRYDYWGQGTQVTVSS,low polyreactivity
14,QVQLVESGGGLVQAGGSLRLSCAASGRTFRSYTMGWYRQAPGKERELVAAIRTSSGSTYYADSVKGRFTISRDNAKNTVYLQMNSLKPEDTAVYYCAKTLLYPWFRTVAVDYWGQGTQVTVSS,low polyreactivity
15,QVQLVESGGGLVQAGGSLRLSCAASGRTFRTYTMGWYRPAPGKERELVAAISKRGSSTYYADSVKGRFTISRDNAKNTVYLQMNSLKQEDTAVYYCAARSWLSNSPYGYWGQGTQVTVSS,high polyreactivity
16,QVQLVESGGGLVQAGGSLRLSCAASGRTFRTYTMGWYRQAHGKERELVAAITSTGSTYYADSVKGRFTISRDNAMNTVYLQMNSLKPEDTAVYYCNVGRRLRPYRCTRPNLEYYYWGQGTQVTVSS,high polyreactivity
17,QVQLVESGGGLVQAGGSLRLSCAASGRTFRTYTMGWYRQAPGKEREFGAAITSSGASTYYADSVKGRFTISRDNAKNTVYLPMNSLKPEETAVYYCAARYGRRLVWVPALLYDYWGQGTQVTVSS,high polyreactivity
18,QVQLVESGGGLVQAGGSLRLSCAASGRTFRVNSMGWYRPAPGKDRELVATIRWTGGSTYYADSVKGRFTISRDNAKNTVYLQMNSLKPEDTAVYYCAARIAVYHRGIGGYWGQGTQVTVSS,high polyreactivity
19,QVQLVESGGGLVQAGGSLRLSCAASGRTFRVYAMGWYRQAPGKERELVAAIRRSGGSTYYADSVKGRFTISRDNAKNTVYLQMNSLKPEDTAVYYCAAYFYYWGSTFVRYEYWGLGTQVTVSS,high polyreactivity
20,QVQLVESGGGLVQAGGSLRLSCAASGRTFRVYAMGWYRQAPGKERELVAAISGRGGSTYYADSVKGRFSISRDNAKNTVYFQMNSLKPEVTAVYYCAKSNPYLRLCEGNYWGQGTQVTVSS,high polyreactivity
21,QVQLVESGGGLVQAGGSLRLSCAASGRTFRVYARGWYRQAPGKERELVATITSSGGSTYYADSVKGRFTISRDNAKNTVYLQMNSLKPEDTAVYYCNVSVYYNYDSSYYYWGQGTQVTVSS,low polyreactivity
